Primed or numbered codes have the meaning given here. Where no end group is shown, it is not given here. SUMO″ = SUMO fusion tag (N-terminal); SUMO = SUMO tag, N-terminal
T1: Erh1 (Erh1wt) (Schizosaccharomyces pombe, UniProt G2TRN4)
T1 construct: A region of Erh1 (residues 1–104) was amplified by PCR; made in house; host or cells: Escherichia coli BL21 (Gold)
T1 sequence (G2TRN4 1-104): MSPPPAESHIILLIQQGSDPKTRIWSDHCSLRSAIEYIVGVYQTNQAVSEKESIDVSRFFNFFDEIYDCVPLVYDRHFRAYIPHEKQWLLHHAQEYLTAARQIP

T2: Erh1 (residues 1-104), wild type (S. pombe, UniProt G2TRN4 1-104)
T2 construct: Erh1, S. pombe, residues 1-104, amplified from the S. pombe genome, in a modified pET28a vector without thrombin site (p28a); also called Erh1wt; Enhancer of rudimentary homolog 1; source: E. coli BL21 (Gold), purified (Ni-chelating resin, size-exclusion chromatography)
T2 sequence (looked up): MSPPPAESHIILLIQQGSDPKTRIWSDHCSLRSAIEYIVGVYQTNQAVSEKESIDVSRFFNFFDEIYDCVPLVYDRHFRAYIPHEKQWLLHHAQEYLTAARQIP


How the values were obtained:
Erh1 (Erh1wt) = molecular target: T1, Erh1 (Erh1wt); assay: Isothermal titration calorimetry (ITC), SUMO-tagged Mmi1 peptides titrated into wild-type Erh1; type: binding, S. pombe; conditions: for -TΔS / ΔH (binding enthalpy): Erh1wt; for ΔH (binding enthalpy): single-site model; for binding / affinity for Erh1 (in words): ITC (Supplementary Table 1; Fig. 1d, f), relative to Mmi1^95–122
Protocol: The titration protocol consisted of a single initial injection of 1 µl, followed by 19 injections of 2 µl SUMO-tagged Mmi1 peptides into the sample cell containing Erh1 protein. Thermodynamic data were analyzed with a single-site binding model using MicroCal PEAQ-ITC Analysis Software provided by the manufacturer.

[1] = molecular target: T2, Erh1 (residues 1-104), wild type; assay: ITC; SUMO-tagged Mmi1 peptides titrated into Erh1 in the sample cell; MicroCal iTC200, 293 K; 20 mM Tris-HCl pH 7.5, 150 mM NaCl; single-site binding model; conditions: both partners purified
Erh1 = assay: GST pull-down of Erh1 with GST-tagged Mmi1 fragments, Coomassie; type: binding, S. pombe; conditions: GST-Mmi1 fusion incubated with Erh1, glutathione-agarose, SDS-PAGE
Excerpt: Fig. 1 Mmi1 interacts with Erh1 in a 2:2 stoichiometry. a Shown is a schematic representation of the domain architecture of Mmi1. The disorder score from DISOPRED3 Server[62] and the conservation score are shown below. The conservation score is generated by a Protein Residue Conservation Prediction Server[63] from the sequence alignment of Mmi1 orthologues from S. pombe, S. cryophilus, S. octosporus, and S. japonicus. b–d Interactions of GST tagged Mmi1 peptides (GST-Mmi1) with Erh1 visualized by Coomassie blue staining. The indicated GST-Mmi1 fusion proteins or GST alone were incubated with Erh1. The complexes were collected with glutathione-agarose resin and bound proteins were eluted and then subjected to SDS-PAGE. GST or GST-Mmi1 fusion proteins without Erh1 are shown as a negative control. Source data are provided as a Source Data file. e The raw ITC titration data of Erh1 with SUMO tagged Mmi1^95–122 and its fitting curve are shown. KD dissociation constant, DP differential power, N binding stoichiometry, ΔH binding enthalpy. f ITC fitting curves of Erh1 using SUMO tagged Mmi1^95–122 (magenta), Mmi1^106–122 (blue) and Mmi1^95–111 (green) are shown. g Size-exclusion analysis of Erh1 (magenta) and Erh1-Mmi1^95–122 (blue). Marker sizes are 62.9 KDa (Albumin), 46.7 KDa (Ovalbumin), 20.3 KDa (Chymotrypsinogen), 14.6 KDa (Ribonuclease A). Also shown are theoretical monomer sizes (kDa) of Erh1 protein and Mmi1^95–122 peptide TEXT PRINTED IN THE PICTURE: (e) Mmi1^95–122 - Erh1: KD (μM) 0.83±0.19; N (sites) 0.90±0.01; ΔH (kJ per mol) −106±3.02 | (f) Mmi1^95–122: Erh1 KD (μM): 0.83±0.19 | (f) Mmi1^106–122: Erh1 KD (μM): 9.94±1.19 | (f) Mmi1^95–111: Erh1 KD (μM): no binding | (g) Erh1: 13.2 kDa | (g) Mmi1^95–122: 3.5 kDa
A region of Erh1 (residues 1–104) was amplified by PCR from the S. pombe genome and cloned into a modified pET28a (Novagen) vector without a thrombin protease cleavage site (p28a). GST-Mmi1^YTH was sub-cloned from a Mmi1^YTH-p28a construct to a modified PGex-4T1 vector with a TEV protease cleavage site (Tev4T1). […]

[2] = ITC, 293 K, 20 mM Tris-HCl pH 7.5, 150 mM NaCl, SUMO-tagged Mmi1 peptide

| Molecule | -TΔS (Erh1 (Erh1wt); [2]) | ΔH (binding enthalpy) (Erh1 (Erh1wt); [2]) | Kd [1] | stoichiometry N [1] | also measured |
| --- | --- | --- | --- | --- | --- |
| Mmi1F99A: Mmi1 peptide mutant F99A ({SUMO}-GKYDASRHCTDYGHSYEWPYFRSLRRES; not fully specified) | 8.86 kJ per mol | -42.6±1.83 kJ per mol | – | – | binding / affinity for Erh1 (in words) (Erh1 (Erh1wt)): reduced affinities for Erh1 |
| Mmi1F115A: Mmi1 peptide mutant F115A ({SUMO}-GKYDFSRHCTDYGHSYEWPYARSLRRES; not fully specified) | 35.7 kJ per mol | -68.0±0.673 kJ per mol | – | – | binding / affinity for Erh1 (in words) (Erh1 (Erh1wt)): reduced affinities for Erh1 |
| Mmi1R119A: Mmi1 peptide mutant R119A ({SUMO}-GKYDFSRHCTDYGHSYEWPYFRSLARES; not fully specified) | 13.1 kJ per mol | -46.3±1.28 kJ per mol | – | – | binding / affinity for Erh1 (in words) (Erh1 (Erh1wt)): reduced |
| Mmi1S100A: Mmi1 peptide mutant S100A ({SUMO}-GKYDFARHCTDYGHSYEWPYFRSLRRES; not fully specified) | 6.04 kJ per mol | -36.0±3.16 kJ per mol | – | – | – |
| Mmi1Y114A: Mmi1 peptide mutant Y114A ({SUMO}-GKYDFSRHCTDYGHSYEWPAFRSLRRES; not fully specified) | 31.1 kJ per mol | -61.8±1.07 kJ per mol | – | – | binding / affinity for Erh1 (in words) (Erh1 (Erh1wt)): reduced affinities for Erh1 |
| Mmi1^95–111: truncated Mmi1 peptide, residues 95–111 ({SUMO″}-GKYDFSRHCTDYGHSYE; not fully specified) | – | – | – | – | binding / affinity for Erh1 (in words) (Erh1 (Erh1wt)): did not bind at all; KD (dissociation constant) (Erh1 (Erh1wt); text and figures 1e, 1f, 3e, Erh1, ITC, 293 K, 20 mM Tris-HCl pH 7.5, 150 mM NaCl, SUMO-tagged Mmi1 peptide): no binding |
| GKADFSRHCTDYGHSYEWPYFRSLRRES (domain or fragment, S. pombe, UniProt O74958 95-122, looked up, also called Mmi1 Y97A; source: E. coli BL21 (Gold), purified (Ni-chelating resin, size-exclusion chromatography); not shown: SUMO, N-terminal, kept) [SUMO-tagged Mmi1 95-122 Y97A] | – | – | 1750 ± 317 nM | 1.27 | – |
| GKYDFSRHCADYGHSYEWPYFRSLRRES (domain or fragment, S. pombe, UniProt O74958 95-122, looked up, also called Mmi1 T104A; source: E. coli BL21 (Gold), purified (Ni-chelating resin, size-exclusion chromatography); not shown: SUMO, N-terminal, kept) [SUMO-tagged Mmi1 95-122 T104A] | – | – | 3270 ± 425 nM | 1.45 | – |
| GKYDFSRHCTDAGHSYEWPYFRSLRRES (domain or fragment, S. pombe, UniProt O74958 95-122, looked up, also called Mmi1 Y106A; source: E. coli BL21 (Gold), purified (Ni-chelating resin, size-exclusion chromatography); not shown: SUMO, N-terminal, kept) [SUMO-tagged Mmi1 95-122 Y106A] | – | – | 1630 ± 473 nM | 1.36 | – |
| GKYDFSRHCTDYGHSYEWPAFRSLRRES (domain or fragment, S. pombe, UniProt O74958 95-122, looked up, also called Mmi1 Y114A; source: E. coli BL21 (Gold), purified (Ni-chelating resin, size-exclusion chromatography); not shown: SUMO, N-terminal, kept) [SUMO-tagged Mmi1 95-122 Y114A] | – | – | 3520 ± 323 nM | 0.97 | – |
| GKYDFSRHCTDYGHSYEWPYFRSLARES (domain or fragment, S. pombe, UniProt O74958 95-122, looked up, also called Mmi1 R119A; source: E. coli BL21 (Gold), purified (Ni-chelating resin, size-exclusion chromatography); not shown: SUMO, N-terminal, kept) [SUMO-tagged Mmi1 95-122 R119A] | – | – | 1220 ± 270 nM | 1.12 | – |
| GST-tagged Mmi1^1–122: purified GST-tagged Mmi1 amino-terminal fragment, residues 1–122 (protein, UniProt O74958 1-122, looked up, fragment, GST tag) MSNTNFSTSRSSKSIPELPNLEALRSLWPPPSLNESGDTRSVWTTHTGEPVASSVLSTSGSNNFSSPLKRPAPESHDAPIGRRLMVDDPRLIKHGKYDFSRHCTDYGHSYEWPYFRSLRRES | – | – | – | – | interaction with Erh1 (GST pull-down) (Erh1): bound efficiently to Erh1 |

Continued, in another order:

| -TΔS (Erh1 (Erh1wt); [2]) | ΔH (binding enthalpy) (Erh1 (Erh1wt); [2]) | Kd [1] | stoichiometry N [1] | Molecule | also measured |
| --- | --- | --- | --- | --- | --- |
| -21.2 kJ per mol | -9.97±2.43 kJ per mol | – | – | Mmi1H108A: Mmi1 peptide mutant H108A ({SUMO}-GKYDFSRHCTDYGASYEWPYFRSLRRES; not fully specified) | – |
| 22.8 kJ per mol | -53.7±1.31 kJ per mol | – | – | Mmi1T104A: Mmi1 peptide mutant T104A ({SUMO}-GKYDFSRHCADYGHSYEWPYFRSLRRES; not fully specified) | – |
| 13.8 kJ per mol | -46.1±1.20 kJ per mol | – | – | Mmi1Y97A: Mmi1 peptide mutant Y97A ({SUMO}-GKADFSRHCTDYGHSYEWPYFRSLRRES; not fully specified) | binding / affinity for Erh1 (in words) (Erh1 (Erh1wt)): reduced affinities for Erh1 |
| 11.3 kJ per mol | -43.8±2.35 kJ per mol | – | – | Mmi1Y106A: Mmi1 peptide mutant Y106A ({SUMO}-GKYDFSRHCTDAGHSYEWPYFRSLRRES; not fully specified) | – |
| 246 kJ per mol | -273±20.3 kJ per mol | – | – | Mmi1Y110A: Mmi1 peptide mutant Y110A ({SUMO}-GKYDFSRHCTDYGHSAEWPYFRSLRRES; not fully specified) | – |
| 45.5 kJ per mol | -73.6±2.69 kJ per mol | – | – | Mmi1^106–122: further truncated Mmi1 fragment, residues 106–122 ({SUMO″}-YGHSYEWPYFRSLRRES; not fully specified) | binding / affinity for Erh1 (in words) (Erh1 (Erh1wt)): decreased binding to Erh1 |
| – | – | 9940 ± 1190 nM | 0.89 | YGHSYEWPYFRSLRRES (domain or fragment, S. pombe, UniProt O74958 106-122, looked up, source: E. coli BL21 (Gold), purified (Ni-chelating resin, size-exclusion chromatography); not shown: SUMO, N-terminal, kept) [SUMO-tagged Mmi1 106-122] | – |
| – | – | 2780 ± 2150 nM | 1.36 | GKYDFSRHCTDYGASYEWPYFRSLRRES (domain or fragment, S. pombe, UniProt O74958 95-122, looked up, also called Mmi1 H108A; source: E. coli BL21 (Gold), purified (Ni-chelating resin, size-exclusion chromatography); not shown: SUMO, N-terminal, kept) [SUMO-tagged Mmi1 95-122 H108A] | – |
| – | – | 996 ± 355 nM | 1.38 | GKYDASRHCTDYGHSYEWPYFRSLRRES (domain or fragment, S. pombe, UniProt O74958 95-122, looked up, also called Mmi1 F99A; source: E. coli BL21 (Gold), purified (Ni-chelating resin, size-exclusion chromatography); not shown: SUMO, N-terminal, kept) [SUMO-tagged Mmi1 95-122 F99A] | – |
| – | – | 4730 ± 1620 nM | 1.36 | GKYDFARHCTDYGHSYEWPYFRSLRRES (domain or fragment, S. pombe, UniProt O74958 95-122, looked up, also called Mmi1 S100A; source: E. coli BL21 (Gold), purified (Ni-chelating resin, size-exclusion chromatography); not shown: SUMO, N-terminal, kept) [SUMO-tagged Mmi1 95-122 S100A] | – |
| – | – | 15000 ± 2710 nM | 1 | GKYDFSRHCTDYGHSAEWPYFRSLRRES (domain or fragment, S. pombe, UniProt O74958 95-122, looked up, also called Mmi1 Y110A; source: E. coli BL21 (Gold), purified (Ni-chelating resin, size-exclusion chromatography); not shown: SUMO, N-terminal, kept) [SUMO-tagged Mmi1 95-122 Y110A] | – |
| – | – | 1800 ± 121 nM | 0.9 | GKYDFSRHCTDYGHSYEWPYARSLRRES (domain or fragment, S. pombe, UniProt O74958 95-122, looked up, also called Mmi1 F115A; source: E. coli BL21 (Gold), purified (Ni-chelating resin, size-exclusion chromatography); not shown: SUMO, N-terminal, kept) [SUMO-tagged Mmi1 95-122 F115A] | – |

From article PMC6335422 (Nature Communications, 2019)
